Experimental data taken from the DeepSol protein solubility set.

Test: soluble on expression in E. coli; label from the status in PepcDB or PDB records

Sequence: DVQLVESGGGSVQAGGSLRLSCAVSGYKDRNYCMGWFRRAPGKEREGVAVIDSSGRTAYADSVKGRFTISRDVALDTAYLQMNSLKPEDTAMYYCAAGWSSLGSCGTNRNRYNYWGQGTQVTVSSRGRHHHHHH
- soluble on expression in E. coli: soluble

Sequence: MREFSRPKVVISRCLEFDHCRYNGDMISSPVVVKLKKHVDFLPVCPEVEIGLGVPRNPVRIVLDKGDHRLVQPSSGKDVTEDMKSFCSNFLDSIYEVDGFILKFRSPSCGLKDVKVYPSAGSHGGAVEKISGYFGGAVLGRYPFHPVEDEGRLRNARIKEHFLTKLFTFAAFRKVKSEGSIKDLINFHAQNKFLLMAYNQAELQKLGEIAANREKRPWKELISDYENHLYSALSRAPRYTSTINVLMHALGFFSDQLSSREKALFFDWVQKYREGRASVCPAINMIRSWIVRFEDGYLMSQTFFEPYPEDLIEINPVESHLREDLWK
- soluble on expression in E. coli: not soluble

Sequence: MAHHHHHHMLDFLDTINKYTLRSGSVTHIGGKISKKCAAQLVGSLVLQGRLNHYCAALAAQFMVSSEVLVVASRDAVQGISCEGCTLERQNLSSVPDTGEIFGVATTGNNVVVGYSAGVAMFSCKLELEKIYTLSEYTNSILGIAVTPDGSCLATGGANAIVTVWSRDMNPVHYLAGHTDWVRFVKFTIMDGRGLELFSTGDDGLVLHWDPLVGTLLSRIDFFHGQDIHAFEVSWRTGLIGIARDTPTICLYKPQISGIASNHAVGAVRLEQIGRIDDAHHSVLTALRFSNDSQWIVSAGEDETLSVSSVCQLKRVFVCETFIVRRHCMTFMNTFTSVCVLASPPESSAIIVVACATDGTVVQWVVNPETFKCTYTKKLQLL
- soluble on expression in E. coli: not soluble

Sequence: SNAMRSAQVYRWQIPMDAGVVLRDRRLKTRDGLYVCLRDGEREGWGEISPLPGFSQETWEEAQTALLTWVNDWLQGSEGLPEMPSVAFGASCALAELTGVLPEAADYRAAPLCTGDPDDLVLRLADMPGEKIAKVKVGLYEAVRDGMVVNLLLEAIPDLHLRLDANRAWTPLKAQQFAKYVNPDYRARIAFLEEPCKTRDDSRAFARETGIAIAWDESLREADFTFEAEEGVRAVVIKPTLTGSLDKVREQVAAAHALGLTAVISSSIESSLGLTQLARIAAWLTPGTLPGLDTLHLMQAQQIRPWPGSALPCLKREELERLL
- soluble on expression in E. coli: soluble

Sequence: EGSENLFITGDNLEALKLLQESYLGKIDMIYIDPPYNTGKDFVYQDNFKKTKKENDLSEGILDEEGDRLVKNEKSNGRYHSDWLTMIYPRLKLARNLLSDSGIIFVSIDENEIANLELLLTEIFGENNLAGTIVWDKRNPKGDSKGVSMQHEYIVAAAKNINIFSEFKEFKRPKKNAEIIL
- soluble on expression in E. coli: not soluble

Sequence: SCEGPSRISGPIPPDPTLCPDNYRRPTSAQGRLEGNALKLDLLTSDRALDTTAPRGPCIGPGAGEILERGQRGVGDVLLQLEGISLGPGASLKRKDPKDHEKENLRRIREIQKRFREQERSREQGQPRPLKALWRSPKYDKVESRVKAQLQEPGPASGTESAHFLRAHSRCGPGLPPPHVSSPQPTPPGPEAKEPGLGVDFIRHNARAAKRAPRRHSCSLQVLAQVLEQQRQAQEHYNATQKGHVPHYLLERRDLWRREAEARKQSQPDPAMPPGHTRMPENQRLETLTKLLQSQSQLLRELVLLPAGADSLRAQSHRAELDRKLVQVEEAIKIFSRPKVFVKMDD
- soluble on expression in E. coli: soluble

Sequence: MSLDKKPVTTRKKVKVTGTETYINQSTGEIKEMQVIDIEERDFNFHKVWLEHIIHSMDLIGNQKTRLAFWLINNLNRDNVLIMTQRKIAEKTGISLETVRQTMKALMESGFLIKINSGAYCVNPDAVFKGGKTDRLNVLIQYRKSEQENTKTSEPTSEKDEPSLFNNEQLKAMEGHHHHHH
- soluble on expression in E. coli: soluble

Sequence: MGSDKIHHHHHHETENVNCGQVLAGDTAYLKTVTGEYRIKIAENESLNMSCEAVMDRILSRDHVLRPLENGVAFARVVYMDYELIEKHVEMSYHPQNSFCFAIDKKAAKEFKERMQAMASCLPNVLLLPGRFFKNPIHDLSVDSHGHNTNLAHYNCLRALINKPGWNYAILLQNHDLITKSVYELEKIFNWLGGANDVAIRPELGRLDKKHFKWDPMSLKLFRNESEIDPVILNTTLKFAKGAVQSSLSRAAVDWMTRTVDLTTFIDQWNHGTYGVDEQFTQAFQISDFLGMPGHFTDKCIKKGIITEGITRFAQWTHGDQSKCASKKSRHGICIMGIEHLSMMAKSEHLMFNKVLPLFDYSIIECTAE
- soluble on expression in E. coli: not soluble

Sequence: AIAANQWERFVWLALDAPDTIVERAPLVIQVAWLEDTQLRLWEPAAREPLKRGDDAALRTYLRDAAECPWDPATDPSLVREFLLSRAVDCAFRDELAEHAGCVVDEELDTDFIAETMALSEELVRADDKKLPLETQDLDPASFDLLRAELALPAASAREVLRAGAHWAITRWPPREQWLPPCSRADAPATTALAATGGVPSEAQATPEPMCTETTVSDATCALPSGVYAQLQRIGRQLHNEELLYTQHLLNAALERAQTMTANPRTEARLGRVGH
- soluble on expression in E. coli: soluble

Sequence: MNRTIDRSVPKLGVRSTRQRTAVVGVLKDLDYFASAKVIHQELTKRDLKVGLTTVYRTLQSLSEIEAVDVLHMSNGETLYRHCLSDEHHHHLVCTECGRTVEIDGGPVEKWAKEVAQLHGFQVTGHDAEIYGLCESCSAATE
- soluble on expression in E. coli: not soluble

Sequence: MAHHHHHHMDAPEWTKDAQSIQGAKDYVRQASIVDFYEMICRNIFTHHPANLTEFCLRIVKDIMNGTEITSAADFQPKRIDDNKYMRDMAMCSFLDGWILELLRERPGTHLERMEFHKRYLEGLQSESDTGK
- soluble on expression in E. coli: soluble

Sequence: MGSDKIHHHHHHKTLAANAVFATAFVKRDGSFGAAILSEAGKVLHAIDLPDRGHDVTFDPISKRSVVFARQPGTFAVVFDHSGRDAPQTVASISGRHFFGHGVFSPDGALLYATENDFDNAAGVIGIYDARAKFSRVGEFPTYGMGPHELLLLGDGRTMAVANGGIETHPDYGRAELNIATMKPSYVLIDRVTGDLIEKHELPASLHQLSIRHMDTDPSGTVWFGCQYRGPGTDRPLLVGRAVRGKELQLLDMPQDVLSGFRNYIGSVAANLSAGSVAVSSPEGNSLVVIDAASGRVVSSSALVEVCGLAPDGSGFIATTGAGEIIEGSGATRSEPDYVWDNHMLRIERA
- soluble on expression in E. coli: not soluble

Sequence: MAVAMDNAILENILRQVRPLIGQGKVADYIPALATVDGSRLGIAICTVDGQLFQAGDAQERFSIQSISKVLSLVVAMRHYSEEEIWQRVGKDPSGSPFNSLVQLEMEQGIPRNPFINAGALVVCDMLQGRLSAPRQRMLEVVRGLSGVSDISYDTVVARSEFEHSARNAAIAWLMKSFGNFHHDVTTVLQNYFHYCALKMSCVELARTFVFLANQGKAIHIDEPVVTPMQARQINALMATSGMYQNAGEFAWRVGLPAKSGVGGGIVAIVPHEMAIAVWSPELDDAGNSLAGIAVLEQLTKQLGRSVY
- soluble on expression in E. coli: soluble

Sequence: MGHHHHHHSHMAKQPTVLWAQRESLVYLTIEVDEAKIEELKGEGNKLHFQGSSKTDKYEATLEFFDEIDPASVKHTGSSTRVVEITVQKKTPAWWPRLLQNKGKVHWLKVDFGKWKDEDEDDEAEDAGAGIGGGMANGFDLNQYMSQMGGAGGADFGGLEDDEEDDDMPDLEDNEEEEGKNGTRA
- soluble on expression in E. coli: soluble

Sequence: MSLVQNNESVFFVECDSYKESPSTSPIRLDDLDGNDAVSDQGLAFDGDVGITSQARVRNPRAQIFEDSNTDVVLHLDDLDMVPLNTKFDMQMEMGSPMAMPAETPPPVEPLKTKDLAYSSLAHLPSYFFEQTHFRIDRKCLLEMSKLRRNYLTISKQDALSCPQLHSRVAGGYLKPVKEKLFGIRHFLDLEESNTVNLLQDGNYMTELFNSQINIPTFKEFREDFEWCLKIIRDRSLSRFSEKRLQYLVNKFPVFQHLHSKEEMRQSKKVPHKDFYNCRKIDLNLLLSGCFSQWQLTEFIWTKLRKEPDRVIHQAFNGSHITLSQLFKVNFEETGQFFNGLKIIDDSFLEWYKVIYLAKYHLVNDEMEIHTGSHGKQLRYYLIAKTFLEFDNYINGEYLAELLKTFLIKPQEESKYQLCQLSVDFQFYLHYDNSDVDNWWMVFANWLNHYNIFSNNIRWNIRISRIYPELYHTGKVKNFQEYLNLIFKPLFNAENYLHKSLGPILLKFLSQVSSIDLCIQDTDNYIWKNFTAVSCLPKDWTSGGDNPTISQYMYYVYVNLTKLNHIRQALHQNTFTLRSSCSPTSMNRTSQFSNTLNFTEHTEAILNNFLLACGGFLNAENLWNAPPSLVYLFYLSQIPMVVAPLNSIVDSKPTMLQEQAPTGLVLEPSKPYKKNPFMKFFEMGFKISLSSESILYNNSYTKEPIIEEYSVAASIYRLHSADLCELLRNSVITSGFSSTLKNKWLGVSLASHDYFVENTGFVDKWYDCKPNTSLEHNVPIIRRQYRSSTLAGEWRLIIAEGHHHHHH
- soluble on expression in E. coli: not soluble

Sequence: MKALCLLLLPVLGLLVSSKTLCSMEEAINERIQEVAGSLIFRAISSIGLECQSVTSRGDLATCPRGFAVTGCTCGSACGSWDVRAETTCHCQCAGMDWTGARCCRVQPLEHHHHHH
- soluble on expression in E. coli: not soluble

Sequence: MKNLAIFDLDNTLINTDSDHAWPQYLIKKGLVDAAETEAQNEKFYRDYQNGCLDIDAFLKFHLAPLARYSKEELAEFHREFMAEYIIPHISPMQRMLVQSHQMAGDETLVISSTNEFIITPVCHLFGITNIIGTQLETGSDGRYTGNYIGTPSLKEGKITRLNQWLAERGETLQSYGKTYFYSDSKNDLPLLRLVSEPVAVNPDAELEKEAKEKGWPVLNFK
- soluble on expression in E. coli: soluble

Sequence: SMGSDDEEQEDPADYCKGGYHPVKIGDLFNGRYHVIRKLGWGHFSTVWLCWDMQGKRFVAMKVVKSAQHYTETALDEIKLLKCVRESDPSDPNKDMVVQLIDDFKISGMNGIHVCMVFEVLGHHLLKWIIKSNYQGLPVRCVKSIIRQVLQGLDYLHSKCKIIHTDIKPENILMCVDDAYVRRMAAEATEWQKAGAPPPSGSAVSTAPAADLLVNPLDPRNADKIRVKIADLGNACWVHKHFTEDIQTRQYRSIEVLIGAGYSTPADIWSTACMAFELATGDYLFEPHSGEDYSRDEDHIAHIIELLGSIPRHFALSGKYSREFFNRRGELRHITKLKPWSLFDVLVEKYGWPHEDAAQFTDFLIPMLEMVPEKRASAGECLRHPWLNS
- soluble on expression in E. coli: soluble

Sequence: MKFIVKLQAEITIKSRPVRKRFTKILESSVKNVLRRIDEQVTTRMNWDNIEVNTKDNSPENRERLVEALKCIPGIPMFLEVQQSEFVDVHDIYEKTLAVHAESIENKTFCVRAKRTGNHDFNSLKVEQYVGGGLNQQVESAKVKLKNPDVTIHLEIKNKDLFIVTQRHKGLGGFPIATQEDVLSLMSGGFDSGVSSYQMIKKGARTHYCFFNLGGSAHEVGVKQISYYLWNKFGASHKVKFFAVDFEPVVAEILENVENSQMGVVLKRMMIRAATKIAERGKIQALVTGESLGQVSSQTLTNLNVINRVTDTLILRPLAAYDKQDIIDIARKIGTEEFSKTIPEYCGVISKKPTVKAVLSKVEEEEGNFDFDVLDKVVSETRVYDIRDIGKEAEEEIHAVDLVENIPENAVVVDIRSPEEEEDKPLELGDVEVKHIPFYKLSTQFGDLDMTKEYLLYCDHGVMSKLQALYLLDNGFKNVKVYRP
- soluble on expression in E. coli: not soluble

Sequence: MGSDKIHHHHHHMENIMLQEIELKLAISPQIGIELPQYLAKFTILEHQNLFLGNTYYDYPDHFLAKQKMGLRIRQEDQELTLTLKTNGKVVSGLHSRPEYNLPLIEKETPTNAQLRGLYPFEQLPSSTLQPIFSTDFNRTFWLVEFQQSKIEVAFDQGKIIAGEYEQPISEIEFELKSGNVQDLFDFVETLPFERDIYFSSASKAKRGYLLGSKQFLTDWLNKWRDFLKEEREESAVDFCAKFNAVLKMEQKLLEETLSFSPTLFSQDFMKTVERVGAFFNLYHYYDENGKILEAMATEKQKETRLPALLESNQKIFVEIRDLIRFHSETKDNEKTIEKLTALLKSRVYFERMIKLMELSYDLG
- soluble on expression in E. coli: not soluble
